Values quoted from earlier work, collected in patent US9879249B2, “Aldehyde-tagged protein-based drug carriers and methods of use” (Redwood Bioscience, Inc., priority 2009, dated 2018).

Settings: calcitonin peptide alone, unconjugated

Substance: Calcitonin
- absorption half-life: 10 to 15 min
- elimination half-life: 50 to 80 min
